As a reminder, the Kd is the constant that tells how readily two partners part at equilibrium. The koff is the rate constant with which the complex falls apart. Read a low koff as a long-lived complex. A word on the kon: it is a measure of how fast the partners come together. Read a low kon as slow association.

The target in this test is 人IgM (human, UniProt P01871 1-453). The test can be described thus: AMC sensor kinetics, antibody captured on the sensor, human IgM in graded dilutions in solution.
人IgM, sequence (P01871 other isoform, or with tags, fused parts or gaps): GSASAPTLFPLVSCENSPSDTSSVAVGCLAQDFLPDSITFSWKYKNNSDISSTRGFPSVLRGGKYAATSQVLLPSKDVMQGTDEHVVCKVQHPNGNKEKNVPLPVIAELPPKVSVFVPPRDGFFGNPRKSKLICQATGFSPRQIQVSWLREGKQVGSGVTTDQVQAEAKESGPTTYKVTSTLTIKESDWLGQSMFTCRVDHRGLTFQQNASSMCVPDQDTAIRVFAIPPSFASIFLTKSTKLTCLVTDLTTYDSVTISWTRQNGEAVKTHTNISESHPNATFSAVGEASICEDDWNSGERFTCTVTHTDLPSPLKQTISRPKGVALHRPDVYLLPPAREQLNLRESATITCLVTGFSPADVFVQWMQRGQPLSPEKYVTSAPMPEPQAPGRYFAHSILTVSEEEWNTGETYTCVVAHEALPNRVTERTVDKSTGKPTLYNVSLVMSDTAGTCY

B1: Ig-M-9G1RMb1抗体 (antibody, mouse IgG1, kappa, V domains shown)
VH: EVQLQQSGAELVKPGASVKLSCTTSGFSIKDAYIHWVKQRPKQGLEWIGRIDPANGYTKYDPKFQGKATITADKSSSTAYMQLRSLTSEDSAVYYCAREPLPHYYAMDYWGQGTSVTVSS
VL: DIQMTQSPSSLSASLGERVSLTCRASQEISGFLSWLQQKPDGTIKRLIYAASTLDSGVPKRFSGSTSGSDYRLKISSLESEDFADYYCIQYTSFPLTFGAGTKLELKR
notes: It was detected with goat anti-mouse IgG-HRP and captured on AMC sensors; also called 抗人IgM抗体
Consider B1, for which the affinity, expressed as Kd, was 3.02 pM; the koff is 2.84e-05 s⁻¹; the kon came out at 9.41e+06 M⁻¹ s⁻¹.

B2: Ig-M-9G1RMb2抗体 (antibody, V domains shown)
VH: EVQLQQSGAELVKPGASVKLSCTTSGFSIKDAYIHWVKQRPKQGLEWIGRIDPANGYTKYDPKFQGKATITADKSSSTAYMQLRSLTSEDSAVYYCAREPLPHYYAMDYWGQGTSVTVSS
VL: DIQMTQSPSSLSASLGERVSLTCRASQEISGFLSWLQQKPDGTIKRLIYAASTLDSGVPKRFSGSTSGSDYRLKISSLESEDFADYYCLQYTSFPLTFGAGTKLELKR
The molecule B2 displayed a Kd of 4.27 pM, a koff of 6.07e-05 s⁻¹ and a kon of 1.42e+07 M⁻¹ s⁻¹.

The record behind these values is CN115677856A (DONGGUAN PENGZHI BIOTECHNOLOGY CO LTD, dated 2023).
